Reference: patent publication US20230322893A1, “CD47 BINDER AND LIPOSOME COMPLEX FOR CANCER TREATMENT” (priority 2020, published 2023)

B1: mdNT-1: Murine cytosolic 5′deoxyribnucleotidase (protein, UniProt Q9JM14 1-200, looked up)
5'(3')-deoxyribonucleotidase, …: MAVKRPVRVLVDMDGVLADFESGLLQGFRRRFPEEPHVPLEQRRGFLANEQYGALRPDLAEKVASVYESPGFFLNLEPIPGALDALREMNDMKDTEVFICTTPLLKYDHCVGEKYRWVEQNLGPEFVERIILTRDKTVVMGDLLIDDKDNIQGLEETPSWEHILFTCCHNQHLALPPTRRRLLSWSDNWRGIIESKRASL
B2: SV4: binder of SEQ ID NO: 2; SV1 with lysines at the 11th and 104th positions substituted with leucine (protein)
chain: MEEELQIIQPDLSVSVAAGESAILHCTITSLFPVGPIQWFRGAGPARVLIYNQRQGPFPRVTTVSETTKRENMDFSISISNITPADAGTYYCIKFRKGSPDTEFLSGAGTELSVRAKPS
modifications: CD47 binder SV4
B3: SV4-DSPE: DSPE-conjugated form of SV4 (NHS-activated DSPE-PEG2000 with SV4 protein) (conjugate)
chain: MEEELQIIQPDLSVSVAAGESAILHCTITSLFPVGPIQWFRGAGPARVLIYNQRQGPFPRVTTVSETTKRENMDFSISISNITPADAGTYYCIKFRKGSPDTEFLSGAGTELSVRAKPS
B4: hdNT-1: Human cytosolic 5′deoxyribonucleotidase (protein, UniProt Q8TCD5 1-201, looked up)
5'(3')-deoxyribonucleotidase, …: MARSVRVLVDMDGVLADFEAGLLRGFRRRFPEEPHVPLEQRRGFLAREQYRALRPDLADKVASVYEAPGFFLDLEPIPGALDAVREMNDLPDTQVFICTSPLLKYHHCVGEKYRWVEQHLGPQFVERIILTRDKTVVLGDLLIDDKDTVRGQEETPSWEHILFTCCHNRHLVLPPTRRRLLSWSDNWREILDSKRGAAQRE
B5: T001: Thymidylate 5′-phosphohydrolase derived from bacteriophage PBS2, gene sequence optimized (SEQ ID NO: 3); final drug form mRNA (protein)
chain: MVFSIKEPFSIVTDCDEVLTDISPLWVHKIQQNADYFGKYFDLSKLEGLEFGTFEHYQTVLSRPEFHLNKWLRKENLVLSDEEEKELFERFYSLYDNDEFYEDCMPTKMCEGIYKLSLQKFVDKIYVVTRTSEGTKEGKRKFIETFLNSNKVEIIFVGKNEKKSDYIKNLKNVKMIVEDELSNINDIVENCNDGFEEVDTYIPSTGYNNKDIDGFNENLMKKGFNAVPYVIIERPETEEKAV
modifications: T001
notes: final drug form mRNA
B6: NT5M (hdNT-2): human mitochondrial 5′-nucleotidase (SEQ ID NO: 32) (protein)
chain: MGGRALRVLVDMDGVLADFEGGFLRKFRARFPDQPFIALEDRRGFWVSEQYGRLRPGLSEKAISIWESKNFFFELEPLPGAVEAVKEMASLQNTDVFICTSPIKMFKYCPYEKYAWVEKYFGPDFLEQIVLTRDKTVVSADLLIDDRPDITGAEPTPSWEHVLFTACHNQHLQLQPPRRRLHSWADDWKAILDSKRPC
modifications: NT5M

Legend:
dTMP [1] = conditions: read-out: Preferred Substrate (Km), dTMP; cited from earlier work
dGMP = conditions: read-out: Preferred Substrate (Km), dGMP; cited from earlier work
dUMP = conditions: read-out: Preferred Substrate (Km), dUMP; cited from earlier work
dAMP = conditions: read-out: Preferred Substrate (Km), dAMP; cited from earlier work
recombinant CD47 protein = recombinant CD47 protein (Homo sapiens, UniProt Q08722); assay: SPR, CD47 conjugated to CM5 chip by EDC-NHS; format: binding
Sequence of recombinant CD47 protein (Q08722 19-323): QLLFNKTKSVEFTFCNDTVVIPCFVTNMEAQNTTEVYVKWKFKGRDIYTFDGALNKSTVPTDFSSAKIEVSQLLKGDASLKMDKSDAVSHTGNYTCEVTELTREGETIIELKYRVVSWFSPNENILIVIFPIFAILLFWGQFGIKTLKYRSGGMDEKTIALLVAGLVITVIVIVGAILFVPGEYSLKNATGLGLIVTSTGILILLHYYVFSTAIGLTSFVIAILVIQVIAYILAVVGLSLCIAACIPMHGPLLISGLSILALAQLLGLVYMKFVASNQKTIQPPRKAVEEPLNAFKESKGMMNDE
Method: Specifically, the recombinant CD47 protein was conjugated to the surface of the CM5 chip by a target SPR reaction of 250 RU through an EDC-NHS reaction to be used, and for HBS-P, the sensogram obtained through a process of association for 3 minutes and dissociation for 10 minutes at a flow rate of 30 µL/minutes was analyzed with the BiaEvaluation software using a 1:1 binding model and global fitting.

[2] = system: colon cancer cell line HCT-116; assay: Trypan blue assay, cell viability and cell growth inhibition; format: cell-based; conditions: HCT-116, 1.25 µg mRNA, 24 hours
Method: T001 is more specific to the nucleic acid T due to its structural difference from NT5M. Therefore, nucleic acid imbalance due to the loss of dTTP rather than the overall loss of nucleic acid may have a greater effect on cancer cell metabolism and thereby inhibit the growth of cancer cells. […] Each mRNA was transfected into the colon cancer cell line HCT-116, and 24 hours thereafter, Trypan blue assay was performed and the results of cell viability and cell growth inhibition on HCT-116 are shown in FIG. 13. The specific experimental method is as follows.
HCT-116 cells were transfected with 1.25 µg each of non-mature form NT5M, mature form NT5M, and CT mRNA. After 24 hours, the resultants were each treated with trypsin and the cells were harvested using a centrifuge. After resuspending the harvested cells with 1× DPBS, a certain amount of cells were mixed with trypan blue reagent at a 1:1 ratio. After incubation for 2 minutes at room temperature (RT), the number of cells was counted using a hemocytometer. After obtaining the number of cells stained and unstained with the trypan blue reagent, the number of viable and non-viable cells was obtained, and then divided by the total number of cells to obtain the viability. Each experiment was repeated three or more times to evaluate the significance.

dTMP [3] = assay: 5′-nucleotidase preferred substrate Km, dTMP; format: biochemical; conditions: according to Table 4
[4] = CM5 chip, CD47 250 RU, 30 µL/minutes

Row | Molecule | Km (dTMP [1]) [µM] | Km (dGMP) [µM] | Km (dUMP) [µM] | Km (dAMP) [µM] | binding activity when conjugated with DSPE and when inserted into liposomes (recombinant CD47 protein) | ka (recombinant CD47 protein; [4]) [M⁻¹ s⁻¹] | kd (recombinant CD47 protein; [4]) [s⁻¹] | effect on cells (cell viability and cell growth inhibition) [2] | affinity for dTMP lower than T001 (dTMP [3]) [times]
1 | B1 | 1400 | 1200 | 800 | 1000 |  |  |  |  | 
2 | B2 |  |  |  |  | maintained within the error range | 164000 | 0.000275 |  | 
3 | B3 |  |  |  |  |  |  | 0.000256 |  | 
4 | B4 | 1500 | 3300 | 1500 | 3000 |  |  |  |  | 
5 | B5 | 10 | 700 | 800 |  |  |  |  | greater than that of human NT5M | 
6 | B6 | 300 | 90 | 160 |  |  |  |  |  | 30
